Measured values published in patent publication US20230381281A1, “PHARMACEUTICAL COMPOSITION COMPRISING GLUCAGON/GLP-1/GIP TRIPLE AGONIST OR LONG-ACTING CONJUGATE THEREOF FOR PREVENTING OR TREATING LUPUS-RELATED DISEASES” (HANMI PHARM. CO., LTD., priority 2020, published 2023).
Bridge positions count the residues as written; N and C are the ends. Square brackets hold non-standard residues; d marks the D form. Ends that are not written are not given here. * marks the point of attachment. Acetyl(2-(4-imidazolyl)) = O=C(Cc1c[nH]cn1)*; Aib = CC(C)(N)C(=O)O

T1: human GIP receptor (human, UniProt P48546 22-466)
T1 sequence (looked up): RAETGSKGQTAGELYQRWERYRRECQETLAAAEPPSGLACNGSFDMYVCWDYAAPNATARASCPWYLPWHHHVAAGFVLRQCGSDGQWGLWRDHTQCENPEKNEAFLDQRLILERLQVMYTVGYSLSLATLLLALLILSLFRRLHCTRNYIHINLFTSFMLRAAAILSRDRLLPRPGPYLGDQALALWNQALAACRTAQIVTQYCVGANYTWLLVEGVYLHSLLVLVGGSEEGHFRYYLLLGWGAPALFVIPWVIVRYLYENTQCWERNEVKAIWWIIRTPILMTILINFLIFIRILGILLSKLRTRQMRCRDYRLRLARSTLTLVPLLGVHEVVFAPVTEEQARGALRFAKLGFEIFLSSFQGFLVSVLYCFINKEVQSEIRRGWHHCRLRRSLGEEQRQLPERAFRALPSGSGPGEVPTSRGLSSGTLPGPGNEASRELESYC

B1: Triple agonist of SEQ ID NO: 32 (peptide)
peptide: H[Aib]QGTFTSDYSKYLDEKACKDFVQWLLDGGPSSGAPPPS
modifications: bridge 16-20
B2: Triple agonist of SEQ ID NO: 14 (peptide)
peptide: {Acetyl(2-(4-imidazolyl))}-GQGTFTSDYSIQLDEIAVRDFVEWLKNGGPSSGAPPPSHG
B3: Triple agonist of SEQ ID NO: 2 (peptide)
peptide: H[Aib]QGTFTSDVSSYLDGQAQKEFIAWLVKGC
B4: Triple agonist of SEQ ID NO: 29 (peptide)
peptide: H[Aib]QGTFTSDYSKYLDEKAAKEFVQWLLNTC
modifications: bridge 16-20
B5: Triple agonist of SEQ ID NO: 28 (peptide)
peptide: H[Aib]QGTFTSDYSKYLDEKRAQEFVCWLLAQKGKKNDWKHNIT
B6: Triple agonist of SEQ ID NO: 102 (peptide)
peptide: Y[Aib]QGTFTSDYSKALDEKAAKDFVNWLLDQHPSSGQPPPSC
modifications: bridge 16-20
B7: Triple agonist of SEQ ID NO: 3 (peptide)
peptide: H[Aib]QGTFTSDVSSYLLGQAAKQFIAWLVKGGGPSSGAPPPSC
B8: Triple agonist of SEQ ID NO: 33 (peptide)
peptide: H[Aib]QGTFTSDYSIAMDEIHQKDFVNWLLAQKC
modifications: bridge 16-20
B9: Triple agonist of SEQ ID NO: 13 (peptide)
peptide: {Acetyl(2-(4-imidazolyl))}-GEGTFISDYSIQLDEIAVQDFVEWLLAQKPSSGAPPPSHG
B10: Triple agonist of SEQ ID NO: 97 (peptide)
peptide: Y[Aib]QGTFTSDYSKYLDEKRAKEFVQWLLDCHPSSGQPPPS
modifications: bridge 16-20
B11: Triple agonist of SEQ ID NO: 18 (peptide)
peptide: {Acetyl(2-(4-imidazolyl))}-GQGTFTSDLSKQMDSERAREFIEWLKNTGPSSGAPPPSHG
B12: Triple agonist of SEQ ID NO: 98 (peptide)
peptide: Y[Aib]QGTFTSDYSKALDEKAAKEFVNWLLDHHPSSGQPPPSC
modifications: bridge 16-20
B13: Triple agonist of SEQ ID NO: 26 (peptide)
peptide: H[Aib]QGTFTSDCSKYLDSRAAQDFVQWLLDGGPSSGAPPPS
B14: Triple agonist of SEQ ID NO: 21 (peptide)
peptide: Y[Aib]QGTFTSDYSKYLDECRAKEFVQWLLDHHPSSGQPPPS
modifications: bridge 16-20
B15: Triple agonist of SEQ ID NO: 11 (peptide)
peptide: {Acetyl(2-(4-imidazolyl))}-GEGTFTSDLSKYLDSRRQQLFVQWLKAGGPSSGAPPPSHG
B16: Triple agonist of SEQ ID NO: 22 (peptide)
peptide: Y[Aib]QGTFTSDYSKCLDEKRAKEFVQWLLDHHPSSGQPPPS
modifications: bridge 16-20
B17: Triple agonist of SEQ ID NO: 99 (peptide)
peptide: Y[Aib]QGTFTSDYSKALDEKAAKDFVNWLLDHHPSSGQPPPSC
modifications: bridge 16-20
B18: Triple agonist of SEQ ID NO: 23 (peptide)
peptide: Y[Aib]QGTFTSDYSKYLDECRAKEFVQWLLAQKGKKNDWKHNIT
modifications: bridge 16-20
B19: Triple agonist of SEQ ID NO: 16 (peptide)
peptide: {Acetyl(2-(4-imidazolyl))}-GQGTFTSDLSKQMDSEAQQLFIEWLKNGGPSSGAPPPSHG
B20: Triple agonist of SEQ ID NO: 19 (peptide)
peptide: {Acetyl(2-(4-imidazolyl))}-GQGTFTSDLSIQYDSEHQRDFIEWLKDTGPSSGAPPPSHG
B21: Triple agonist of SEQ ID NO: 100 (peptide)
peptide: Y[Aib]QGTFTSDYSKALDEKAAKEFVQWLLDQHPSSGQPPPSC
modifications: bridge 16-20
B22: Triple agonist of SEQ ID NO: 31 (peptide)
peptide: H[Aib]QGTFTSDYSKYLDEKACKEFVQWLLAQ
modifications: bridge 16-20
B23: Triple agonist of SEQ ID NO: 24 (peptide)
peptide: Y[Aib]QGTFTSDYSKYLDECRAKEFVQWLKNGGPSSGAPPPS
modifications: bridge 16-20
B24: Triple agonist of SEQ ID NO: 27 (peptide)
peptide: H[Aib]QGTFTSDYSKYLDERACQDFVQWLLDQGGPSSGAPPPS
B25: Triple agonist of SEQ ID NO: 12 (peptide)
peptide: {Acetyl(2-(4-imidazolyl))}-GEGTFISDLSKYMDEQAVQLFVEWLMAGGPSSGAPPPSHG
B26: Triple agonist of SEQ ID NO: 20 (peptide)
peptide: {Acetyl(2-(4-imidazolyl))}-GQGTFTSDLSIQYEEEAQQDFVEWLKDTGPSSGAPPPSHG
B27: Triple agonist of SEQ ID NO: 30 (peptide)
peptide: H[Aib]QGTFTSDYSKYLDEKAQKEFVQWLLDTC
modifications: bridge 16-20
B28: Triple agonist of SEQ ID NO: 25 (peptide)
peptide: H[Aib]QGTFTSDCSKYLDERAAQDFVQWLLDGGPSSGAPPPS
B29: Triple agonist of SEQ ID NO: 17 (peptide)
peptide: {Acetyl(2-(4-imidazolyl))}-GQGTFTSDLSKQMDEERAREFIEWLLAQKPSSGAPPPSHG

molecular target: human GCG receptor (human, UniProt P47871 26-477); test: cell-based or functional assay
Sequence (P47871 26-477): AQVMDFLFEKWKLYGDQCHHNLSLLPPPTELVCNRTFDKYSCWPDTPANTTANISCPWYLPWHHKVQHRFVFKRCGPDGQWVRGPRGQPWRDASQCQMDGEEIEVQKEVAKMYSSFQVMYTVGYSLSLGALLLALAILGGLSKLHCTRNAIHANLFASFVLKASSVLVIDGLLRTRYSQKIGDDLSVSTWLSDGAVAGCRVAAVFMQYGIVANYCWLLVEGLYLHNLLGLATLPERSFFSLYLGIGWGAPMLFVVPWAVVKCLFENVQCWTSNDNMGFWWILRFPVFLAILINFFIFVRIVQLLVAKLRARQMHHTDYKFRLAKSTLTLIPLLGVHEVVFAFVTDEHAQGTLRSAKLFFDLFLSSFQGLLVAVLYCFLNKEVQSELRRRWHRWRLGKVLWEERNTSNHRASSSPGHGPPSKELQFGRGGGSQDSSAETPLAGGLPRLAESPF

First: B1
Second: B2
The “In vitro activity compared to native peptide (%) vs Glucagon” value (“In vitro activity … (%) vs Glucagon” for short) of the first is higher: 1.7% for the first, less than 0.1% for the second.

First: B3
Second: B4
The “In vitro activity … (%) vs Glucagon” value of the first is lower: less than 0.1% for the first, 6% for the second.

First: B5
Second: B6
The “In vitro activity … (%) vs Glucagon” value of the first is lower: 1.6% for the first, 29.5% for the second.

B7 and B8 cannot be ordered by “In vitro activity … (%) vs Glucagon” value: less than 0.1% for the first, less than 0.1% for the second.

Going from B9 to B10, the “In vitro activity … (%) vs Glucagon” value rises from less than 0.1% to 62.8%.

Going from B11 to B12, the “In vitro activity … (%) vs Glucagon” value rises from less than 0.1% to 8.2%.

Compared with B13, B14 is higher in “In vitro activity … (%) vs Glucagon” value: 0.2% for the first, 267% for the second.

Compared with B15, B16 is higher in “In vitro activity … (%) vs Glucagon” value: less than 0.1% for the first, 140% for the second.

First: B17
Second: B18
The “In vitro activity … (%) vs Glucagon” value of the first is higher: 14.9% for the first, 9.3% for the second.

B19 and B20 cannot be ordered by “In vitro activity … (%) vs Glucagon” value: less than 0.1% for the first, less than 0.1% for the second.

Going from B21 to B22, the “In vitro activity … (%) vs Glucagon” value falls from 12.7% to 2.2%.

Compared with B23, B24 is lower in “In vitro activity … (%) vs Glucagon” value: 9.3% for the first, 0.8% for the second.

B25 and B26 cannot be ordered by “In vitro activity … (%) vs Glucagon” value: less than 0.1% for the first, less than 0.1% for the second.

First: B27
Second: B28
The “In vitro activity … (%) vs Glucagon” value of the first is higher: 0.7% for the first, 0.1% for the second.

With B29 the “In vitro activity … (%) vs Glucagon” value was less than 0.1%.

molecular target: T1, human GIP receptor; test: cell-based or functional assay

Compared with B1, B2 is lower in “In vitro activity compared to native peptide (%) vs GIP” value (from here on “In vitro activity … (%) vs GIP”): 8.8% for the first, less than 0.1% for the second.

B3 and B4 cannot be ordered by “In vitro activity … (%) vs GIP” value: less than 0.1% for the first, less than 0.1% for the second.

Compared with B5, B6 is higher in “In vitro activity … (%) vs GIP” value: less than 0.1% for the first, 58% for the second.

Going from B7 to B8, the “In vitro activity … (%) vs GIP” value rises from less than 0.1% to 10.4%.

Compared with B9, B10 is higher in “In vitro activity … (%) vs GIP” value: less than 0.1% for the first, 2.6% for the second.

Going from B11 to B12, the “In vitro activity … (%) vs GIP” value rises from less than 0.1% to 47.1%.

Compared with B13, B14 is higher in “In vitro activity … (%) vs GIP” value: less than 0.1% for the first, 22.7% for the second.

Going from B15 to B16, the “In vitro activity … (%) vs GIP” value rises from less than 0.1% to 59.7%.

Compared with B17, B18 is lower in “In vitro activity … (%) vs GIP” value: 57.7% for the first, less than 0.1% for the second.

B19 and B20 cannot be ordered by “In vitro activity … (%) vs GIP” value: less than 0.1% for the first, less than 0.1% for the second.

Compared with B21, B22 is lower in “In vitro activity … (%) vs GIP” value: 118% for the first, 2.4% for the second.

Compared with B23, B24 is higher in “In vitro activity … (%) vs GIP” value: less than 0.1% for the first, 0.9% for the second.

B25 and B26 cannot be ordered by “In vitro activity … (%) vs GIP” value: less than 0.1% for the first, less than 0.1% for the second.

Compared with B27, B28 is lower in “In vitro activity … (%) vs GIP” value: 0.8% for the first, less than 0.1% for the second.

B29 was tested, and the “In vitro activity … (%) vs GIP” value was less than 0.1%.

molecular target: human GLP-1 receptor (human, UniProt P43220 24-463); test: cell-based or functional assay

First: B1
Second: B2
The “In vitro activity compared to native peptide (%) vs GLP-1” value (“In vitro activity … (%) vs GLP-1” for short) of the first is higher: 151% for the first, 28% for the second.

Compared with B3, B4 is higher in “In vitro activity … (%) vs GLP-1” value: 5.9% for the first, 38.5% for the second.

First: B5
Second: B6
The “In vitro activity … (%) vs GLP-1” value of the first is lower: 17.2% for the first, 23.3% for the second.

Going from B7 to B8, the “In vitro activity … (%) vs GLP-1” value rises from 1.8% to 24.5%.

Going from B9 to B10, the “In vitro activity … (%) vs GLP-1” value rises from less than 0.1% to 10.5%.

Going from B11 to B12, the “In vitro activity … (%) vs GLP-1” value rises from less than 0.1% to 28.1%.

Going from B13 to B14, the “In vitro activity … (%) vs GLP-1” value falls from 64.5% to 17.8%.

First: B15
Second: B16
The “In vitro activity … (%) vs GLP-1” value of the first is lower: 1.4% for the first, 20.1% for the second.

Compared with B17, B18 is lower in “In vitro activity … (%) vs GLP-1” value: 20.9% for the first, 4.01% for the second.

First: B19
Second: B20
The “In vitro activity … (%) vs GLP-1” value of the first is higher: 2.1% for the first, less than 0.1% for the second.

Compared with B21, B22 is higher in “In vitro activity … (%) vs GLP-1” value: 42.2% for the first, 135% for the second.

First: B23
Second: B24
The “In vitro activity … (%) vs GLP-1” value of the first is lower: 41.2% for the first, 83.1% for the second.

Compared with B25, B26 is lower in “In vitro activity … (%) vs GLP-1” value: 0.4% for the first, less than 0.1% for the second.

Going from B27 to B28, the “In vitro activity … (%) vs GLP-1” value falls from 142% to 82.6%.

For B29, the “In vitro activity … (%) vs GLP-1” value was 0.2%.
